From patent US10500249B2, “Compositions and methods for preventing or treating diseases, conditions, or processes characterized by aberrant fibroblast proliferation and extracellular matrix deposition” (MOERAE MATRIX, INC., priority 2014, dated 2019)

Columns and labels:
Experiment in all cases: Kinase Profiling Assay
Assay type in all cases: biochemical
Conditions in all cases: 100 μM
[1] = target: T1, Tec (h) activated (Homo sapiens, UniProt P42680)
T1 sequence (P42680 1-631): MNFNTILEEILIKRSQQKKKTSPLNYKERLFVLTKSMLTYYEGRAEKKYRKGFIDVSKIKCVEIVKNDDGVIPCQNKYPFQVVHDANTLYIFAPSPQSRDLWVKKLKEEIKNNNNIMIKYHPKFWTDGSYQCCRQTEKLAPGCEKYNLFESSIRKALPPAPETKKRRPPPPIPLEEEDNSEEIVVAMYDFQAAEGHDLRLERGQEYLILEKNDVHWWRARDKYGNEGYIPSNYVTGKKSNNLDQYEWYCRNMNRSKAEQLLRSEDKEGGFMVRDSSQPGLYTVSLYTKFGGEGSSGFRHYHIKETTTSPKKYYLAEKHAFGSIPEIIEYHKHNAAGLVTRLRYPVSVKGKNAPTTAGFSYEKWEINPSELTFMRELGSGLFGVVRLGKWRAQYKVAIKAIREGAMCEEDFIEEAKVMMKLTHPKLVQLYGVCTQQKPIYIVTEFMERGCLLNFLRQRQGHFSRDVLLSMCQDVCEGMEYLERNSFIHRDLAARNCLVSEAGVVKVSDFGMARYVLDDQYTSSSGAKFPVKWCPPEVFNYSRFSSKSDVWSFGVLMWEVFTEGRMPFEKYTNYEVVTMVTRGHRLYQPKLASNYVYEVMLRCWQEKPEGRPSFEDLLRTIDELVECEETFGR
Procedure, shortened: (§1)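 In this 266-kinase specificity panel, every measurement was duplicated. Transfer of labeled phosphate from ATP to a cationic substrate was quantified after the substrate adhered to an anionic filter membrane and was scintillation-counted, then related to a full-activity control.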

[2] = target: T2, CDK3/cyclinE (h) (Homo sapiens, UniProt Q00526)
T2 construct: purchased Millipore
Procedure, shortened: as §1

[3] = target: AMPKα1 (h) (Homo sapiens, UniProt Q13131)
Procedure, shortened: as §1

[4] = target: T3, DDR2 (h) (Homo sapiens, UniProt Q16832)
T3 construct: purchased Millipore
T3 sequence (Q16832 22-855): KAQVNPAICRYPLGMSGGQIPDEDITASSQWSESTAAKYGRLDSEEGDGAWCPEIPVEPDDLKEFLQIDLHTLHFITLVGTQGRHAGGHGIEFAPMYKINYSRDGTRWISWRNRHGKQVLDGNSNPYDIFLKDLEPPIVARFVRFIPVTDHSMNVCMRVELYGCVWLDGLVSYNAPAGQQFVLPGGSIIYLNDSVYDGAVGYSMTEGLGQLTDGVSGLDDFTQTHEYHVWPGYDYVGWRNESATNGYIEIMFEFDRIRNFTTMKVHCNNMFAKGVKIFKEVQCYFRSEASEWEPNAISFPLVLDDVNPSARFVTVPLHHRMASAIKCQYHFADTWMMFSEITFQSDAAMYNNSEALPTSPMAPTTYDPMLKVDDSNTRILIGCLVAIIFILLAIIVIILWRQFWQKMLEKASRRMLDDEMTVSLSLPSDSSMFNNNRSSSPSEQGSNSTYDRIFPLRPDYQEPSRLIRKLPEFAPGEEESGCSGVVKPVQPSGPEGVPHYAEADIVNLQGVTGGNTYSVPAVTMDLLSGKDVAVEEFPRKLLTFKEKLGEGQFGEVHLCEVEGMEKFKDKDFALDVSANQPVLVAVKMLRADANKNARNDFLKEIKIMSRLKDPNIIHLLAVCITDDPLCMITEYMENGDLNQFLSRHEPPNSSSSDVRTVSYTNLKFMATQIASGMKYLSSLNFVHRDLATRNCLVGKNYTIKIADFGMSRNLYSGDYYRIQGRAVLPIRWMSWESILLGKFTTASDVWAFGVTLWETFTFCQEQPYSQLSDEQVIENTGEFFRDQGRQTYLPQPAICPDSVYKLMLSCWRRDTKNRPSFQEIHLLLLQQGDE
Procedure, shortened: as §1

[5] = target: ROCK-II (h) (Homo sapiens, UniProt O75116)
Procedure, shortened: as §1

[6] = target: T4, SAPK3 (h) (Homo sapiens, UniProt P53778)
T4 sequence (P53778 1-367): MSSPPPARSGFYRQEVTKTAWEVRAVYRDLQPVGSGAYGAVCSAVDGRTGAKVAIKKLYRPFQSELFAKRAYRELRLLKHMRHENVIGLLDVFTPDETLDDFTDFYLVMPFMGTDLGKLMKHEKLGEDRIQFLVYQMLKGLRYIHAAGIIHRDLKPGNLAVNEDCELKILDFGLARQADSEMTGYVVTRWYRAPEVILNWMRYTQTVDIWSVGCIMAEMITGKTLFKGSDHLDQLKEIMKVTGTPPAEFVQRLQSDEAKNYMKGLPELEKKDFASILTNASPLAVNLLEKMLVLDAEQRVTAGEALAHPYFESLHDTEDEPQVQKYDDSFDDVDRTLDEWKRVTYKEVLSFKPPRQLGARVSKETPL
Procedure, shortened: as §1

[7] = target: T5, CDK5/p25 (h) (Homo sapiens, UniProt Q00535)
T5 construct: purchased Millipore
Procedure, shortened: as §1

[8] = target: Met(Y1248C) (h) (Homo sapiens, UniProt P08581, Y1230C)
Procedure, shortened: as §1

T5 sequence (Q00535 whole entry): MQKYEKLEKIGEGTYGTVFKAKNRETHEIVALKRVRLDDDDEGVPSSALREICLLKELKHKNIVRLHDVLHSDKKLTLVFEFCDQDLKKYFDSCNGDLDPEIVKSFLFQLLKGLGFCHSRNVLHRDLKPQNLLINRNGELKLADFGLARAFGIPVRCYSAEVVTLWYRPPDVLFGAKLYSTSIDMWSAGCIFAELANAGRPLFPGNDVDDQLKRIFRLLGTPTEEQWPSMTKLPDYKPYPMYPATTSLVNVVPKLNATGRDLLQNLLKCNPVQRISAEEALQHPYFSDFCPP
T5 sequence (Q15078 99-307 partner limits assumed): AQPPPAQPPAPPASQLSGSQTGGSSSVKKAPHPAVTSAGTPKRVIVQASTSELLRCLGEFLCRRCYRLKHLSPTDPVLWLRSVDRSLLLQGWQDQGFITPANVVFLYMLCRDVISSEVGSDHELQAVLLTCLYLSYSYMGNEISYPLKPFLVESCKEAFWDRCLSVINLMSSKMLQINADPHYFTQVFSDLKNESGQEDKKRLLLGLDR
T2 sequence (Q00526 whole entry): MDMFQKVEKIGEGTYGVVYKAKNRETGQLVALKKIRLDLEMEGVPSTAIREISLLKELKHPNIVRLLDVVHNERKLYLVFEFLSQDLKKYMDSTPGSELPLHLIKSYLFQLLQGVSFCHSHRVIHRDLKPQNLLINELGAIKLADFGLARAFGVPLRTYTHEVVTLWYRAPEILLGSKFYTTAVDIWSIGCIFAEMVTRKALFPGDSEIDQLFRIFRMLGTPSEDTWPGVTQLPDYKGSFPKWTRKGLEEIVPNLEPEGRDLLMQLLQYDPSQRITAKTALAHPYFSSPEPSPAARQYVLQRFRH
T2 sequence (P24864 whole entry partner): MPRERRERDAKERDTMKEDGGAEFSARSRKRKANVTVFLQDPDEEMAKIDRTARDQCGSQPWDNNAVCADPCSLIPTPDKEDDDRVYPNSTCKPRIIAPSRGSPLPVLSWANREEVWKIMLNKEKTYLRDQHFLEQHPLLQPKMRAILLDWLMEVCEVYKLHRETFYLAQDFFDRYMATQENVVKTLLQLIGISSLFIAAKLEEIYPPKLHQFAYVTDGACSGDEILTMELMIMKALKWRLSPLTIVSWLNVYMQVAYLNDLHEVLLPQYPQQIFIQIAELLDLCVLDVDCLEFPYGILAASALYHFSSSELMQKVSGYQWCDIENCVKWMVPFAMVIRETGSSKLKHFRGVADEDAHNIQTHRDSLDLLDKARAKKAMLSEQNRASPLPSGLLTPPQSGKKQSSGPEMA
Sequence of AMPKα1 (h) (Q13131 whole entry): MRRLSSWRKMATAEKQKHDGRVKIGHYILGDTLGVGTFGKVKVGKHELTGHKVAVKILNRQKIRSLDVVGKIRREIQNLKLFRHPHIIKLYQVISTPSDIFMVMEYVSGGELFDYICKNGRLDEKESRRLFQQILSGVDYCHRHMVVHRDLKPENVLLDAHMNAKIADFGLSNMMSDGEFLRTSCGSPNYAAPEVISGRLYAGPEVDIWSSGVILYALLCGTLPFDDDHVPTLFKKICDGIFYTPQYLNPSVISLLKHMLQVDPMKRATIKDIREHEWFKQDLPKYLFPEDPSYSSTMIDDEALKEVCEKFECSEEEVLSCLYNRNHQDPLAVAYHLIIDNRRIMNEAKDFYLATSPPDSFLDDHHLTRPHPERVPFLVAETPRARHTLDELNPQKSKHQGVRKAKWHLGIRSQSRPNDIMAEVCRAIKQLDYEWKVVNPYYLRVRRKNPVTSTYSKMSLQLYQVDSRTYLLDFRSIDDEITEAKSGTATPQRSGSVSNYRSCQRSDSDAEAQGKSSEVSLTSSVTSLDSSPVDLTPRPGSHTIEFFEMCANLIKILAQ
Sequence of AMPKα1 (h) (Q9Y478 whole entry partner): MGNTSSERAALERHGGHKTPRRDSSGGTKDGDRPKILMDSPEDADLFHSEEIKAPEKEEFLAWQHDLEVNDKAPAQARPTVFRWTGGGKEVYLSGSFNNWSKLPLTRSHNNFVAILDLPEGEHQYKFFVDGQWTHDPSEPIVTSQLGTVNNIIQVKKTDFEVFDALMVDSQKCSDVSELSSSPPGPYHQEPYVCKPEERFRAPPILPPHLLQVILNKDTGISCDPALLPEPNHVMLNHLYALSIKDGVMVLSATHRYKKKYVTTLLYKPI
Sequence of AMPKα1 (h) (P54619 whole entry partner): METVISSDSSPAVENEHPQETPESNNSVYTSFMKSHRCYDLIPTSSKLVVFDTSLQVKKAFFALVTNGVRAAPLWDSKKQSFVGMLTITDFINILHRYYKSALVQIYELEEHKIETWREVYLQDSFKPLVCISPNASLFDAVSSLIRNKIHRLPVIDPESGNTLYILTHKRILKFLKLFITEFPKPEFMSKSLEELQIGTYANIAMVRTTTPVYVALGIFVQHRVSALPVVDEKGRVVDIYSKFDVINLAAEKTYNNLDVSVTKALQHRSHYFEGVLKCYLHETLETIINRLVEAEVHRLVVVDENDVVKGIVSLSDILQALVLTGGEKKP
Sequence of ROCK-II (h) (O75116 whole entry): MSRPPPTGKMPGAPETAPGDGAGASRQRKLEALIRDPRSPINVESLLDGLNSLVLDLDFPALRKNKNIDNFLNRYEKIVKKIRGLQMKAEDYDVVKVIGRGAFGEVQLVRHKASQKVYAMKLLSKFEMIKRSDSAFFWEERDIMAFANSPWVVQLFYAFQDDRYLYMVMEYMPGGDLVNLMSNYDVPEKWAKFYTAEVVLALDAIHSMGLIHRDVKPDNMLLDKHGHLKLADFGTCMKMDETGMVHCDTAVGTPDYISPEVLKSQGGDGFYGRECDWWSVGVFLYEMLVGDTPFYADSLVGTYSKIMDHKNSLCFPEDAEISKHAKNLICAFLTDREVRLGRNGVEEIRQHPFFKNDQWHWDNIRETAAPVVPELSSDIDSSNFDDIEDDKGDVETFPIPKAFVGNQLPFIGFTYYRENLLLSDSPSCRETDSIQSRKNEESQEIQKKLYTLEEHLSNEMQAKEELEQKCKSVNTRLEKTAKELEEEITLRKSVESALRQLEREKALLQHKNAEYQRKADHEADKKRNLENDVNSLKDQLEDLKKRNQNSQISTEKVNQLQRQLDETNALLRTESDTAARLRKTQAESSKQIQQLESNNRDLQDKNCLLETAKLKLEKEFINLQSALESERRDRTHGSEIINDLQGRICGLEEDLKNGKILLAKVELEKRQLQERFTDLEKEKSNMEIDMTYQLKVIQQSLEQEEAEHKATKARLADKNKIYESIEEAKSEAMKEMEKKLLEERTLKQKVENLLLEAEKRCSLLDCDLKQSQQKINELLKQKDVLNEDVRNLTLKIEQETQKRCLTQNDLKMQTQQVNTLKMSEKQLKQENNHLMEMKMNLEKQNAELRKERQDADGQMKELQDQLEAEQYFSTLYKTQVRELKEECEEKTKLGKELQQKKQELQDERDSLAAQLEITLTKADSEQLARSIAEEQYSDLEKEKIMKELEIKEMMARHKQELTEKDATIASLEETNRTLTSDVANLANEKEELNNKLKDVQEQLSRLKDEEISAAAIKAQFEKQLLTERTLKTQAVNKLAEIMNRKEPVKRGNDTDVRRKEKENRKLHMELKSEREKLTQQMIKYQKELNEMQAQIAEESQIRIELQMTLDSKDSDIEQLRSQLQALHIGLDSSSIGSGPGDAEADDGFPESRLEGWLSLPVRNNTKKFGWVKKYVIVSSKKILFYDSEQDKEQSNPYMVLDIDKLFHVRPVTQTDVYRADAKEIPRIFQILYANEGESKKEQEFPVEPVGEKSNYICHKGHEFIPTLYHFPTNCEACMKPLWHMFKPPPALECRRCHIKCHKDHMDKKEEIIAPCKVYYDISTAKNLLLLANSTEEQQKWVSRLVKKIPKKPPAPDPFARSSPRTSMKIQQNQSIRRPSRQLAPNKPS

Row | Sequence | % activity [1] | % activity [2] | % activity [3] | % activity [4] | % activity [5] | % activity [6] | % activity [7] | % activity [8]
1 | FAKLAARLYRKALARQLGVAA [MMI-0300] | 56% | 94% | 71% | 94% | 74% | 84% | 89% | 84%
2 | HRRIKAWLKKIKALARQLGVAA (Mammalian) [MMI-0500] | 33% | 8% | 35% | 79% | 2% | 24% | 66% | 73%
3 | KAFAKLAARLYRKALARQLGVAA [MMI-0400] | 29% | 92% | 87% | 95% | 77% | 79% | 92% | 36%
4 | YARAAARQARAKALNRQLGVA (Mammalian) [MMI-0200] | 77% |  | 108% |  | 85% | 97% | 97% | 141%
